T1: APBA1_2, Q02410
T1 sequence (Q02410 742-832, limits assumed, looked up): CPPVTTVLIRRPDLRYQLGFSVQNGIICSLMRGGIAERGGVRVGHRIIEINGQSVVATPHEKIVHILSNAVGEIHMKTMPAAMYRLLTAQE

T2: APBA2_1, Q99767
T2 sequence (Q99767 563-664, limits assumed, looked up): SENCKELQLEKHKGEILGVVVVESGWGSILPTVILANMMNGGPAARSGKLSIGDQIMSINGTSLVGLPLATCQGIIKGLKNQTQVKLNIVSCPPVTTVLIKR

T3: DVL3, Q92997
T3 sequence (Q92997 244-331, limits assumed, looked up): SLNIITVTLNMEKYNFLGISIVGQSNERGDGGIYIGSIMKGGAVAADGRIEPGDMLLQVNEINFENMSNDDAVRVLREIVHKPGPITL

T4: PDZD7_3, Q9H5P4
T4 sequence (Q9H5P4 857-944, limits assumed, looked up): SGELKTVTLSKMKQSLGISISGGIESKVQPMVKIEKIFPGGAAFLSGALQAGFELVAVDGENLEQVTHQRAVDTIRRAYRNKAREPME

T5: LIN7C, Q9NUP9
T5 sequence (Q9NUP9 88-185, limits assumed, looked up): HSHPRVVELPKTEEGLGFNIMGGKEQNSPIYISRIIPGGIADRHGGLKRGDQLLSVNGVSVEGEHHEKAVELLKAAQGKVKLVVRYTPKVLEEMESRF

T6: FRMPD1, Q5SYB0
T6 sequence (Q5SYB0 52-145, limits assumed, looked up): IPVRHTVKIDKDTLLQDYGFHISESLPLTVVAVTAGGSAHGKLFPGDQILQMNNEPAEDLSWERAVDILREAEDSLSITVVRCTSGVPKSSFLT

T7: DLG3_3, Q92796
T7 sequence (Q92796 374-475, limits assumed, looked up): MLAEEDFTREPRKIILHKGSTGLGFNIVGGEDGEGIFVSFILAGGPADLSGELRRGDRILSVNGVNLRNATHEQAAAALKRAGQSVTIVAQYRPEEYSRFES

T8: MPDZ_5, O75970
T8 sequence (O75970 695-796, limits assumed, looked up): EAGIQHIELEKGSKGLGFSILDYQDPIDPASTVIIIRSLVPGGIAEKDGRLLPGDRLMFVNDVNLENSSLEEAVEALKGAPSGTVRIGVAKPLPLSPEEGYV

T9: GRIP1_7, Q9Y3R0
T9 sequence (Q9Y3R0 999-1096, limits assumed, looked up): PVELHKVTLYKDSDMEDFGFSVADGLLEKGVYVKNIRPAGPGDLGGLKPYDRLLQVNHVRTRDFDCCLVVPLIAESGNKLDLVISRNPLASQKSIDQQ

T10: SNTB1, Q13884
T10 sequence (Q13884 107-205, limits assumed, looked up): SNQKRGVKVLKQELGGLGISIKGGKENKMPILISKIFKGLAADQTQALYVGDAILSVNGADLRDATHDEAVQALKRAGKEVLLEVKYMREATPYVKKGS

T11: SHANK1, Q9Y566
T11 sequence (Q9Y566 658-767, limits assumed, looked up): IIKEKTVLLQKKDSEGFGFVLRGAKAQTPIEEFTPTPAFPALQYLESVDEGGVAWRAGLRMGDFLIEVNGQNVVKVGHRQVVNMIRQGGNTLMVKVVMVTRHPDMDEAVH


Legend:
Assay in all cases: holdup assay
Set-up in all cases: key: below the threshold = too weak to quantify, mostly under pKd 3.1 to 4
Conditions in all cases: plain residues with an end cap or a label only (N-terminal biotin on a linker: ttds)
APBA1_2, Q02410 = molecular target: T1, APBA1_2, Q02410
FRMPD2_3, Q68DX3 = molecular target: FRMPD2_3, Q68DX3
APBA2_1, Q99767 = molecular target: T2, APBA2_1, Q99767
DVL3, Q92997 = molecular target: T3, DVL3, Q92997
MAGI2_6, Q86UL8 = molecular target: MAGI2_6, Q86UL8
PDZD7_3, Q9H5P4 = molecular target: T4, PDZD7_3, Q9H5P4
LIN7C, Q9NUP9 = molecular target: T5, LIN7C, Q9NUP9
FRMPD2_2, Q68DX3 = molecular target: FRMPD2_2, Q68DX3
CASK, O14936 = molecular target: CASK, O14936
MAGI2_4, Q86UL8 = molecular target: MAGI2_4, Q86UL8
NOS1, P29475 = molecular target: NOS1, P29475
FRMPD1, Q5SYB0 = molecular target: T6, FRMPD1, Q5SYB0
Inadl_5, Q8NI35 = molecular target: Inadl_5, Q8NI35
DLG3_3, Q92796 = molecular target: T7, DLG3_3, Q92796
MPDZ_5, O75970 = molecular target: T8, MPDZ_5, O75970
LNX1_3, Q8TBB1 = molecular target: LNX1_3, Q8TBB1
Inadl_1, Q8NI35 = molecular target: Inadl_1, Q8NI35
DLG4_3, P78352 = molecular target: DLG4_3, P78352
GRIP1_7, Q9Y3R0 = molecular target: T9, GRIP1_7, Q9Y3R0
LAP2, Q96RT1 = molecular target: LAP2, Q96RT1
GOPC, Q9HD26 = molecular target: GOPC, Q9HD26
DLG1_3, Q12959 = molecular target: DLG1_3, Q12959
FRMPD2_1, Q68DX3 = molecular target: FRMPD2_1, Q68DX3
SNTB1, Q13884 = molecular target: T10, SNTB1, Q13884
SCRIB_2, Q14160 = molecular target: SCRIB_2, Q14160
SHANK1, Q9Y566 = molecular target: T11, SHANK1, Q9Y566
GORASP1, Q9BQQ3 = molecular target: GORASP1, Q9BQQ3
Chain of GORASP1, Q9BQQ3 (Q9BQQ3 1-208): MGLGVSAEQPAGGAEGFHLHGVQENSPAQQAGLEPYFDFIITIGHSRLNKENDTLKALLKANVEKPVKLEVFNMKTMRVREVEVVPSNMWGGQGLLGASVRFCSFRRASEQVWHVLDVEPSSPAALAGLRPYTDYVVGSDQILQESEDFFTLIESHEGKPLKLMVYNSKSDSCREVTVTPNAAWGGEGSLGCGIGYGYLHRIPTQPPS

Chain of DLG4_3, P78352 (P78352 306-403): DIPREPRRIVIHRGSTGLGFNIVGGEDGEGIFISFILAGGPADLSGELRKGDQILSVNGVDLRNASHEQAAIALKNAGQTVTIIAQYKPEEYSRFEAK
Chain of MAGI2_4, Q86UL8 (Q86UL8 772-865): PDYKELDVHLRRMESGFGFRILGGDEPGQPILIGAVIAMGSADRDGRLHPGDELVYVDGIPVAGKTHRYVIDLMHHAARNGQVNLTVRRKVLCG
Chain of SCRIB_2, Q14160 (Q14160 857-960): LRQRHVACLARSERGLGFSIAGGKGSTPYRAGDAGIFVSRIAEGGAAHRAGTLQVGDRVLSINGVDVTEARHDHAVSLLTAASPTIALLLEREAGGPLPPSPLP
Chain of FRMPD2_3, Q68DX3 (Q68DX3 1073-1166): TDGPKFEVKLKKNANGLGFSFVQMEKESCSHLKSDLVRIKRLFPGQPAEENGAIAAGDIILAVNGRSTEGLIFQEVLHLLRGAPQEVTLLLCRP
Chain of MAGI2_6, Q86UL8 (Q86UL8 1141-1229): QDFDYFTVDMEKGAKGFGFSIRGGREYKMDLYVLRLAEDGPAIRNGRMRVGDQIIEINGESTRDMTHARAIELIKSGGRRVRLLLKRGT
Chain of CASK, O14936 (O14936 487-570): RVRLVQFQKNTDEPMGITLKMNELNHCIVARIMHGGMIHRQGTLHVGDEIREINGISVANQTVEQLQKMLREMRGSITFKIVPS
Chain of LNX1_3, Q8TBB1 (Q8TBB1 500-596): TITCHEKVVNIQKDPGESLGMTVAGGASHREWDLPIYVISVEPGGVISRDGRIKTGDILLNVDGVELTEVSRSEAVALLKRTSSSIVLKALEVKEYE
Chain of DLG1_3, Q12959 (Q12959 457-571): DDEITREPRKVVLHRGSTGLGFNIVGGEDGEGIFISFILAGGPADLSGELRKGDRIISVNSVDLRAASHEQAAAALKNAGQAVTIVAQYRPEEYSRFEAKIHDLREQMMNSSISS
Chain of FRMPD2_2, Q68DX3 (Q68DX3 944-1038): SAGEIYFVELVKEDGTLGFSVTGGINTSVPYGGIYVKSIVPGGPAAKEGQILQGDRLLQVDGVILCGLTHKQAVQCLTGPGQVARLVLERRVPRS
Chain of LAP2, Q96RT1 (Q96RT1 other isoform, or with tags, fused parts or gaps): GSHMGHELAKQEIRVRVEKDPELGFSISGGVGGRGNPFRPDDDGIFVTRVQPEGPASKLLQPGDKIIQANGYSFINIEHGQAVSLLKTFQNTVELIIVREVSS
Chain of Inadl_1, Q8NI35 (Q8NI35 113-229): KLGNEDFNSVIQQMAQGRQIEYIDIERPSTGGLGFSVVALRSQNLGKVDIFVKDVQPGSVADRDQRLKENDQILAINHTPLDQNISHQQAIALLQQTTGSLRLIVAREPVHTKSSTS
Chain of FRMPD2_1, Q68DX3 (Q68DX3 770-861): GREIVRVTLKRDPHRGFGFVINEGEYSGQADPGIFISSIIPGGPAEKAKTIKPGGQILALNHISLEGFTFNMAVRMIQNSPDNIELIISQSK
Chain of NOS1, P29475 (P29475 9-101): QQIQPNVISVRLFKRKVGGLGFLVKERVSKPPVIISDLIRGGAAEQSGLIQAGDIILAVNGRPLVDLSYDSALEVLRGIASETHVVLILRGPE
Chain of Inadl_5, Q8NI35 (Q8NI35 673-780): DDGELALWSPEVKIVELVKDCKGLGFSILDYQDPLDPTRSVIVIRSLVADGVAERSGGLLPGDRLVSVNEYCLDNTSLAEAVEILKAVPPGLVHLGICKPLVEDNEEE

Row | Binder | pKd (APBA1_2, Q02410) | pKd (FRMPD2_3, Q68DX3) | pKd (APBA2_1, Q99767) | pKd (DVL3, Q92997) | pKd (MAGI2_6, Q86UL8) | pKd (PDZD7_3, Q9H5P4) | pKd (LIN7C, Q9NUP9) | pKd (FRMPD2_2, Q68DX3) | pKd (CASK, O14936) | pKd (MAGI2_4, Q86UL8) | pKd (NOS1, P29475) | pKd (FRMPD1, Q5SYB0) | pKd (Inadl_5, Q8NI35) | pKd (DLG3_3, Q92796) | pKd (MPDZ_5, O75970) | pKd (LNX1_3, Q8TBB1) | pKd (Inadl_1, Q8NI35) | pKd (DLG4_3, P78352) | pKd (GRIP1_7, Q9Y3R0) | pKd (LAP2, Q96RT1) | also measured
1 | DEDQHTQITKV [PTEN, P60484] | 4.02 | below the threshold | below the threshold | below the threshold | 4.07 | 5.1 | below the threshold | 4.19 | 3.47 | 3.64 | below the threshold | below the threshold | below the threshold | 3.71 | 3.46 | below the threshold | 3.77 | 3.56 | below the threshold | 3.82 | pKd (GOPC, Q9HD26): 4.24; pKd (DLG1_3, Q12959): 3.71; pKd (FRMPD2_1, Q68DX3): below the threshold; pKd (SNTB1, Q13884): 4.08; pKd (SCRIB_2, Q14160): 3.73; pKd (SHANK1, Q9Y566): 4.35; pKd (GORASP1, Q9BQQ3): 3.88
2 | NYWPGKETQL [SLCO1C1, Q9NYB5] | 4.08 | below the threshold | below the threshold | below the threshold | 4.42 | 4.62 | 4.93 | below the threshold | below the threshold | below the threshold | 4.41 | below the threshold | below the threshold | 4.25 | below the threshold | below the threshold | 4.12 | 4.18 | below the threshold | 3.92 | pKd (GOPC, Q9HD26): 4.32; pKd (DLG1_3, Q12959): 5.02; pKd (FRMPD2_1, Q68DX3): 4.05; pKd (SNTB1, Q13884): 5.42; pKd (SCRIB_2, Q14160): 4.24; pKd (SHANK1, Q9Y566): 3.81; pKd (GORASP1, Q9BQQ3): below the threshold
3 | RRVRKLPSTTL [RPS6KA1, Q15418] | below the threshold | below the threshold | below the threshold | below the threshold | below the threshold | 4.93 | below the threshold | below the threshold | below the threshold | 3.78 | 3.7 | below the threshold | below the threshold | below the threshold | 3.61 | 3.66 | below the threshold | below the threshold | 3.85 | below the threshold | pKd (GOPC, Q9HD26): 4.96; pKd (DLG1_3, Q12959): 3.63; pKd (FRMPD2_1, Q68DX3): below the threshold; pKd (SNTB1, Q13884): 4.14; pKd (SCRIB_2, Q14160): below the threshold; pKd (SHANK1, Q9Y566): 4.17; pKd (GORASP1, Q9BQQ3): below the threshold
4 | CNTVTVETVV [MAS1, P04201] | below the threshold | 3.57 | below the threshold | below the threshold | below the threshold | 4.27 | 3.64 | below the threshold | below the threshold | 3.49 | below the threshold | below the threshold | below the threshold | below the threshold | 3.53 | below the threshold | below the threshold | below the threshold | below the threshold | 3.48 | pKd (GOPC, Q9HD26): below the threshold; pKd (DLG1_3, Q12959): below the threshold; pKd (FRMPD2_1, Q68DX3): below the threshold; pKd (SNTB1, Q13884): 4.29; pKd (SCRIB_2, Q14160): 3.47; pKd (SHANK1, Q9Y566): below the threshold; pKd (GORASP1, Q9BQQ3): below the threshold
